These results are taken from IntAct's records for PubMed 20368419.

B1: Nibrin (Homo sapiens), O60934 (parent)
chain: MWKLLPAAGPAGGEPYRLLTGVEYVVGRKNCAILIENDQSISRNHAVLTANFSVTNLSQTDEIPVLTLKDNSKYGTFVNEEKMQNGFSRTLKSGDGITFGVFGSKFRIEYEPLVACSSCLDVSGKTALNQAILQLGGFTVNNWTEECTHLVMVSVKVTIKTICALICGRPIVKPEYFTEFLKAVESKKQPPQIESFYPPLDEPSIGSKNVDLSGRQERKQIFKGKTFIFLNAKQHKKLSSAVVFGGGEARLITEENEEEHNFFLAPGTCVVDTGITNSQTLIPDCQKKWIQSIMDMLQRQGLRPIPEAEIGLAVIFMTTKNYCDPQGHPSTGLKTTTPGPSLSQGVSVDEKLMPSAPVNTTTYVADTESEQADTWDLSERPKEIKVSKMEQKFRMLSQDAPTVKESCKTSSNNNSMVSNTLAKMRIPNYQLSPTKLPSINKSKDRASQQQQTNSIRNYFQPSTKKRERDEENQEMSSCKSARIETSCSLLEQTQPATPSLWKNKEQHLSENEPVDTNSDNNLFTDTDLKSIVKNSASKSHAAEKLRSNKKREMDDVAIEDEVLEQLFKDTKPELEIDVKVQKQEEDVNVRKRPRMDIETNDTFSDEAVPESSKISQENEIGKKRELKEDSLWSAKEISNNDKLQDDSEMLPKKLLLTEFRSLVIKNSTSRNPSGINDDYGQLKNFKKFKKVTYPGAGKLPHIIGGSDLIAHHARKNTELEEWLRQEMEVQNQHAKEESLADDLFRYNPYLKRRR

This experiment covers variants of B1. Particulars: with pk3cb_human PIK3CB.
With S661A;L662A;V663A, the “effect of a mutation on the interaction” value is “decreasing interaction”.

K653A;L654A;L655A;L656A: the “effect of a mutation on the interaction” value is listed as “decreasing interaction”.
